# Laboratory results from patent publication US20240059766A1 (VOYAGER THERAPEUTICS, published 2024).
# Non-standard residues stand in square brackets, D forms with d. No end group written: not given here. pT = C[C@@H](OP(=O)(O)O)[C@H](N)C(=O)O; pS = N[C@@H](COP(=O)(O)O)C(=O)O
# T1: Tau204-222 phospho-peptide (pT212) (human, also: SCBiot-(dPEG4) in the ELISA)
# T1 peptide: GTPGSRSR[pT]PSLPTPPTRE
# T2: Tau204-222 phospho-peptide (pS214) (human, also: SCBiot-(dPEG4) in the ELISA)
# T2 peptide: GTPGSRSRTP[pS]LPTPPTRE
# T3: Tau204-222 phospho-peptide (pT212/pS214) (human, also: SCBiot-(dPEG4) in the ELISA)
# T3 peptide: GTPGSRSR[pT]P[pS]LPTPPTRE
# T4: AC04 peptide (human, pT212, pT217: CSR(pT)PSLP(pT)PPTREPK)
# T4 peptide: CSRXPSLPXPPTREPK
# T5: wtTau C2 (human)
# T5 peptide: PTREPKKVA
# T6: AT8 peptide (amino acids 195-215 of tau) (human, phospho-peptide; the phosphorylated sites are not stated; immobilized on streptavidin biosensor tips)
# T6 peptide: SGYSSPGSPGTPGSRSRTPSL
# T7: AT270 peptide (pT181; Tau172-186) (human)
# T7 peptide: PAKTPPAPK[pT]PPSSG
# T8: Tau phospho-peptide (pS235) (human)
# T8 construct: also called pS235 phospho-peptide
# T8 peptide: KVAVVRTPPK[pS]PSSAKPS
# Tests used:
# [1] = biological target: T1, Tau204-222 phospho-peptide (pT212); assay: one point ELISA
# From the text: (§1) One-point ELISA was used to determine differential binding based on the individual phosphorylation patterns of each peptide. OD values (450 nm) were collected (as shown in Table 13), where a stronger positive signal is shown as a higher OD value, which is indicative of increased binding.
# [2] = biological target: T2, Tau204-222 phospho-peptide (pS214); assay: one point ELISA
# From the text: as §1
# [3] = biological target: T3, Tau204-222 phospho-peptide (pT212/pS214); assay: one point ELISA
# From the text: as §1
# [4] = biological target: T4, AC04 peptide; assay: one point ELISA
# From the text: as §1
# [5] = biological target: T5, wtTau C2; assay: one point ELISA
# From the text: as §1
# [6] = biological target: T9, Enriched paired helical filament (ePHF; sarkosyl insoluble tau) (human, UniProt P10636 2-758, pathological (hyperphosphorylated) tau isolated from brain; sites not stated); assay: direct ELISA, coated antigen
# T9 construct: aggregate isolated from AD frontal cortical tissue
# Experimental: (§2) A set of recombinant human IgG1 antibodies were prepared with clone-specific variable domain pairs selected from those presented in Table 1 and human IgG1 constant domains. These candidate antibodies were analyzed for binding to ePHF and specificity for ePHF over wild type tau by direct ELISA.
# (§3) For direct ePHF and wildtype tau ELISA, plates were first coated with ePHF or wild type tau. Antigen solutions were prepared in PBS and 50 μL were pipetted into each well. Plates were covered and incubated for one hour at 37° C. or overnight at 4° C. Plates were then washed and blocked by addition of 150 μl of blocking buffer to each well and incubated one hour at room temperature. Plates were then washed before addition of serially diluted candidate antibody samples prepared in blocking buffer. Detection of candidate antibody binding was carried out by washing plates and adding a solution of enzyme-labeled secondary antibody in blocking buffer to each well. Secondary antibody binding was detected by addition of substrate and spectrophotometric analysis of resulting reaction product.
# [7] = biological target: iPHF (UniProt P10636-8 2-441); assay: BLI (Octet), antibody on biosensor tip
# Experimental: Anti-human tau antibodies were assessed for affinity for iPHF by Octet (ForteBio, Menlo Park, CA) analysis. A set of recombinant human IgG1 antibodies were prepared with clone-specific variable domain pairs selected from those presented in Table 1 and human IgG1 constant domains. Candidate antibodies were immobilized on biosensor tips (ForteBio) in kinetic buffer (ForteBio). Biosensor tips were then washed before introduction of a solution of iPHF in kinetic buffer for analysis of association and dissociation with candidate antibodies.
# [8] = biological target: T10, Tau191-214 phospho-peptide (pS199) (human, pS199 (phosphoserine); SCBio-4PEG in the ELISA); assay: BLI
# T10 construct: also called pS199 peptide
# [9] = biological target: T11, SCBio-4PEG-Peptide (Tau191-214) pS199-old (human, pS199; SCBio-4PEG at the peptide as in the table head); assay: one point ELISA
# T11 construct: the suffix old is not explained
# From the text: as §1
# [10] = biological target: T10, Tau191-214 phospho-peptide (pS199); assay: one point ELISA
# From the text: as §1
# [11] = biological target: T6, AT8 peptide (amino acids 195-215 of tau); assay: BLI (Octet), peptide on streptavidin tip
# Experimental: Briefly, phospho-peptides were immobilized on streptavidin biosensor tips and the binding ability of each antibody was assessed using an eight-point concentration gradient.
# [12] = biological target: wild type tau (human, UniProt P10636 2-758); assay: direct ELISA, coated antigen
# Experimental: as §2, §3
# [13] = biological target: T7, AT270 peptide (pT181; Tau172-186); assay: one point ELISA
# [14] = biological target: T8, Tau phospho-peptide (pS235); assay: one point ELISA on the pS235 peptide
# T9 sequence (P10636 other isoform, or with tags, fused parts or gaps limits assumed): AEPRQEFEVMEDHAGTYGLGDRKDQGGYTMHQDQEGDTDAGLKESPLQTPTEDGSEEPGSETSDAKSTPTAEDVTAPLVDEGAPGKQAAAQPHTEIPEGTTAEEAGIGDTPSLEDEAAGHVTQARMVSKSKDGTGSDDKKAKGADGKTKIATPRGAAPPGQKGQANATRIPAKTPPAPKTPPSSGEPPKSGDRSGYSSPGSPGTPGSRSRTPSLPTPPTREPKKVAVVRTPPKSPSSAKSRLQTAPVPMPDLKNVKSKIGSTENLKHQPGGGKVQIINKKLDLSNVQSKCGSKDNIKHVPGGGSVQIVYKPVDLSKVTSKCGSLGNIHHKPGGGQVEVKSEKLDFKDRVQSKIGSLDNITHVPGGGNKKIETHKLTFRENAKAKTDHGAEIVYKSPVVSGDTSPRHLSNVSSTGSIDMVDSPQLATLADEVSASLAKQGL
# Sequence of wild type tau (P10636 other isoform, or with tags, fused parts or gaps limits assumed): as above
# Sequence of iPHF (P10636 other isoform, or with tags, fused parts or gaps): as the sequence (P10636 other isoform, or with tags, fused parts or gaps limits assumed) above
# T11 sequence (peptide, as listed by the source): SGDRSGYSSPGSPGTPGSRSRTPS
binder,measurement,setting,value
"VY005 (antibody, V domains shown) VH: EVQLVESGGGLVQPGGSLRLSCAASGFTFSSYSMNWVRQAPGKGLEWISYISSSNSTIKYADSVKGRFTISRDNAKNSLYLQMNSLRDEDTAVYYCARRSLGDYWGQGTLVIVSS VL: DIQLTQSPSFLSASVGDRVTITCRASQGISCSLAWYQQKPGKAPKLLIYAASTLQSGVPSRFSGSGSGTEFTLTISSLQPEDFATYYCQQFNSYPFTFGPGTKVDIK",OD450,[1],0.087 OD450 nm
same,OD450,[2],0.092 OD450 nm
same,OD450,[3],0.111 OD450 nm
same,OD450,[4],2.83 OD450 nm
same,OD450,[5],0.153 OD450 nm
same,EC50,[6],0.07 nM
same,Kd,[7],1 nM
"VY006 (antibody, V domains shown) VH: EVQLVESGGGLVQPGGSLRLSCAASGFTFSSYTMNWVRQAPGKGLEWVSYISSSSSTIYYADSVKGRFTISRDNAKNSLYLQMNSLRDEDTAVYYCASLGRGDCWGQGTLVTVSS VL: not shown",binding result,[8],no binding
same,OD450,[9],0.063 OD450 nm
same,OD450,[10],0.054 OD450 nm
same,EC50,[6],0.11 nM
same,Kd,[7],1.5 nM
same,Kd,[11],0.00382 nM
"VY016 (antibody, V domains shown) VH: EVQLVESGGGLVQPGGSLRLSCAASGFTFSSYSMNWVRQAPGKGLEWVSYISRSGSTIYYADSVEGRFTISRDNAYNSLYLQMISLRDDDTAVYYCARGNWAYWGQGILVTVSS VL: QSVLTQPPSVSGAPGQRVTISCTGSSSNIGAGYDVHWYQQLPGTAPKLLIYGNSNRPSGVPDRFSGSKSGTSASLAITGLQAEDETDFYCQSYDSSLSGSVFGGGTKLTVL",binding result,[6],no binding
same,binding result,[12],no binding
"VY013 (antibody, V domains shown) VH: QVTLKESGPVLVKPTETLTLTCTVSGFSLINARMAVSWIRQPPGKALEWLAHIFSNDEKSYSTSLKSRLTISKDTSKSQVVLIMTNMDPVDTATYYCARIRGYSYNYGMDVWGQGTTVTVSS VL: DIVMTQSPLSLPVIPGEPASISCRSSQSLLHSNGYIYLDWYLQKPGQSPQLLIYVGSNRASGVPDRFSGSGSGTDFKLKISRVEAEDVGVYYCMQTLQIPRTFGGGTKVEIK",EC50,[6],0.06 nM
same,EC50,[12],0.98 nM
same,Kd,[7],2.9 nM
"VY014 (antibody, V domains shown) VH: EVQLVESGGGLVQPGGSLRLSCAASGFTFNNYDMHWVRQAAGKGLEWVSTIGAAGDTYYPGSVKGRFIISRENAKNSLYLQMNSLRAGDTAVYYCARAGETLEGATIGYYYGMDVWGQGTTVTVSS VL: DILMTQSPLSLPVTPGEPASISCRSSQSLLHSNGYNYLDWYLQKPGQSPQLLIYLGSNRASGVPDRFSGSGSGTDFTLKFSRVEAEDVGLYYCMQALQIPLTFGGGTKVEIK",EC50,[6],6.23 nM
same,EC50,[12],0.04 nM
same,Kd,[7],5.3 nM
"VY004 (antibody, V domains shown) VH: EVQLVESGGGLVQAGGSLRLSCAASGFTFSDYSMNWVRQAPGKGLEWVSYIRSSSSIIYYADSVKGRFTISRDNAKNSLHLQMNSLRDEDTAVYYCARRGHFDYWGQGTLVTVSS VL: EIVLTQSPATLSLSPGERATLSCRASQSVSDYLAWYQQKPGQAPRLFIYDVSKRATGIPARFSGSGSGTDFTLTISSLEPEDFAVYYCQQRSNWPLTFGGGTKVEIK",OD450,[1],0.082 OD450 nm
same,OD450,[2],0.069 OD450 nm
same,OD450,[3],0.067 OD450 nm
same,OD450,[4],2.85 OD450 nm
same,OD450,[5],0.169 OD450 nm
same,EC50,[6],0.07 nM
same,Kd,[7],3.7 nM
"VY020 (antibody, V domains shown) VH: EVQLVESGGGLVQPGGSLRLSCAASGFTFSSYSMNWVRQAPGKGLEWISYISSSNSTIKYADSVKGRFTISRDNAKNSLYLQMNSLRDEDTAVYYCARRSLGDYWGQGTLVIVSS VL: EIVLTQSPATLSLSPGERATLSCRASQSVSSYLAWYLQKPGQAPRLLIYDVSNRATGIPARFSGSGSGTDFTLTISRLEPEDFAVYYCQQRRNWPYTFGQGTKLEIK",binding result,[8],no binding
same,binding result,[13],no binding
same,Kd,[7],2.6 nM
same,binding result,[11],no binding
"VY017 (antibody, V domains shown) VH: EVQLVESGGGLVQPGGSLRLSCAASGFTFSSYSMNWVRQAPGKGLEWVSYIRSSSSTIYYADSVKGRFTISRDNAKKSLYLQMNSLRDEDTAVYYCARRSIADYWGQGTLVTVSS VL: EIVLTQSPATLSSSPGERATLSCRASQSVTSYLNWYQQKPGQAPRLLIYDASNRATGIPARFSGSGSGTDFTLTISSLEPEDFALYYCQQRSNWPYTFGQGTKLEIK",Kd,[7],3.7 nM
"VY018 (antibody, V domains shown) VH: QVQLQESGPGLVKPSETLSLTCTVSGGSISNYYWSWIRQPAGKGLEWIGRIYTSGDTYYNPSLQSRVTMSVDTSKNQFSLKLSAVTAADTAVYYCARAGIVGTPGLGMDVWGQGTTVTVSS VL: SYELTQPPSVSVSPGQTARITCSGEALPKQYAYWYQQKPGQAPVLVIYKDSERPSGIPERFSGSSSGTTVTLTISGVQAEDEADYYCQSADSSGTYRVFGGGTKLTVL",Kd,[7],3 nM
same,binding result,[14],no binding (tested: not printed (one point))
"VY007 (antibody, V domains shown) VH: EVQLVESGGGLVQPGGSLRLSCAASRFTFSNYNMNWVRQAPGKGLEWISYISSSSSTIYYADSVKGRFTISRDNAKNSLSLQMNSLRDEDTAVYYCASLGRGYWGQGTLVTVSS VL: not shown",binding result,[8],no binding
same,OD450,[9],0.057 OD450 nm
same,OD450,[10],0.057 OD450 nm
same,EC50,[6],0.18 nM
same,Kd,[7],0.6 nM
same,Kd,[11],0.0182 nM
"VY001 (antibody, V domains shown) VH: EVQLVESGGGLVQPGGSLRLSCAASGFTFSSYNMNWVRQAPGKGLEWISYISSSSNTIYYADSVKGRFTVSRDNAKNSLYLQMNSLRDEDTAVYYCATLGRGYWGQGTLVIASS VL: not shown",binding result,[8],no binding
same,OD450,[9],0.059 OD450 nm
same,OD450,[10],0.059 OD450 nm
same,EC50,[6],0.02 nM
same,Kd,[7],7.7 nM
same,Kd,[11],0.00435 nM
"VY012 (antibody, V domains shown) VH: EVQLLESGGGLVQPGGSLRLSCAASGFTYSSYAMSWVRRAPGKGLEWISIISGSSSITYYADSMKGRFTISRDNSKNTLFLQMNSLRAEDTAVYYCAKGGRYGYFQHWGQGTLVTVSS VL: SYVLTQPPSVSVAPGQTARITCGGNNIGSKSVHWYQQKPGQAPVLVVYDDSDRPSGIPERFSGSNSGNTATLTISRVEAGDEADYYCQVWDSSSDPVVFGGGTMLTVL",EC50,[6],0.04 nM
same,EC50,[12],0.01 nM
same,Kd,[7],5.1 nM
"VY009 (antibody, V domains shown) VH: QITLKESGPTLVKPTQTLTLTCTLSGFSLSTSEVGVGWIRQPPGKALEWLAIIYWNDHKRYSPSLKNRLTFTKDTSKNQVVLTMTNMDPVDTATYYCARRVTGEGFDPWGQGTLVTVSS VL: SYELTQPPSVSVSPGQTARITCSGDALPKQYAYWYQQKPGQAPVLVIFKDTERPSGIPERFSGSSSGTTVTLTISGVQAEDEADYYCQSADSSGSYVFGTGTKVTVL",EC50,[6],1.74 nM
same,Kd,[7],1.1 nM
same,binding result,[14],no binding (tested: not printed (one point))
"VY019 (antibody, V domains shown) VH: QVQLQESGPGLVKPSETLSLTCTVSGGSISSYYWTWIRQPAGKGLEWIGRIDTSGSTNYNPSLKSRVTMSIDTSKKQFSLKLSSVTAADTAVYYCARGGDGYRYWGQGTLVTVSS VL: SYELTQPPSVSVSPGQTARITCSGDALPKQYACWYQQKPGQAPVLVIYKDSERPSGIPERFSGSSSGTTVTLTITGVQAEDEADYYCQSTDSSGSWVFGGGTKLTVL",binding result,[6],no binding
same,binding result,[12],no binding
same,binding result,[14],no binding (tested: not printed (one point))
